{"source": "the DeepSol protein solubility set", "data": [{"test": "soluble on expression in E. coli; label from the status in PepcDB or PDB records", "values": [{"sequence": "MSLAELNFKAIEEKWQKRWLEAKIFEPNIRDKPKEKKFYITVAFPYLSGHLHVGHARTYTIPDVIARFKRMQGYNVLFPMAWHITGSPIVGIAERIKNRDPKTIWIYRDVYKVPEEILWTFEDPINIVKYFMKAAKETFIRAGFSVDWSREFYTTSLFPPFSKFIEWQFWKLKEKGYIVKGAHRVRWDPVVGTPLGDHDLMEGEDVPILDYIIIKFELRENGEVIYLPAATLRPETVYGVTNMWVNPNATYVKAKVRRKDKEETWIVSKEAAYKLSFQDREIEVIEEFKGEKLIGKYVRNPVSGDEVIILPAEFVDPDNATGVVMSVPAHAPFDHVALEDLKRETEILEKYDIDPRIVENITYISLIKLEGYGDFPAVEEVNKLGIKSQKDKEKLEQATKTIYKAEYHKGIFKVPPYEGKPVQEVKEAIAKEMLEKGIAEIMYEFAEKNVISRFGNRAVIKIIHDQWFIDYGNPEWKEKARKALERMKILPETRRAQFEAIIDWLDKKACARKIGLGTPLPWDPEWVIESLSDSTIYMAYYTISRHINKLRQEGKLDPEKLTPEFFDYIFLEEFSEDKEKELEKKTGIPAEIIHEMKEEFEYWYPLDWRCSGKDLIPNHLTFFIFNHVAIFREEHWPKGIAVNGFGTLEGQKMSKSKGNVLNFIDAIEENGADVVRLYIMSLAEHDSDFDWRRKEVGKLRKQIERFYELISQFAEYEVKGNVELKDIDRWMLHRLNKAIKETTNALEEFRTRTAVQWAFYSIMNDLRWYLRRTEGRDDEAKRYVLRTLADVWVRLMAPFTPHICEELWEKLGGEGFVSLAKWPEPVEEWWNETIEAEEEFIRSVMEDIKEIIEVAKIENAKRAYIYTAEDWKWKVAEVVSEKRDFKSSMEELMKDSEIRKHGKEVAKIVQKLIKERTFDVKRINEEKALREAKEFMEKELGIEIIINPTEDKGGKKKQAMPLKPAIFIEEGHHHHHH", "soluble on expression in E. coli": "not soluble"}, {"sequence": "MGDVAGMAYLDSMSNEKVWFGYTLKEAQAQQIGLGLDLKGGMNVILKLNASDLLRNLSNKSLDPNFNKALENAAKSTEQSDFIDIFVKEYRKLDPNGRLAVIFGSGDLRDQITAKSTDADVVRLLKEKYNSAVEASFNVLRARIDAFGVVAPNLQRLEGQGRILVELPGVKDPERVRTLLQRSANLQFWRTYKFEEVSGDLIAANDRLSELAMNNTDATPETEPATTDSVAATADSAAVQAVADSATVAQKEAKDATRKDALFSLLTPVNRGGAVVGVARRANMAQISEMLQQAHDLKVTREDVLFLWGAKAIEDPETKKETDLYELYAIRTNRTGDPDLGGDVVTSAKSDIQNDFGRSEPIVSMTMNEEGARKWARITKDNVGRAIAIVLDGVVYSAPNVNDEITGGRSQISGHFTVEEAGDLANVLNSGKMDATVSIEQENVIGPTLGAESIKA", "soluble on expression in E. coli": "not soluble"}, {"sequence": "MGHHHHHHSHVGFDTGFMQFFRVREKSMTMAELLIGSRKTYGLNLIGGVRRDILKEQRLQTLKLVREMRADVSELVEMLLATPNMEQRTQGIGILDRQIARDLRFDHPYADYGNIPKTLFTFTGGDVFSRVMVRVKETFDSLAMLEFALDNMPDTPLLTEGFSYKPHAFALGFVEAPRGEDVHWSMLGDNQKLFRWRCRAATYANWPVLRYMLRGNTVSDAPLIIGSLDPCYSCTDR", "soluble on expression in E. coli": "not soluble"}, {"sequence": "MSLSELSVLSAETAISFHEMDLEILKESQKALREEAGGKEEVEETVENPNPIVFIAVDDQNLPNGEEEDSFIFEKLQFRVKQVMENGTRRVYLSVQATTPAEWQLLVQLRIKTGCQSNILNVVDKDVYKFDSFSYPLNVEIQNSDVKFLKFEMRVLNLMYLDLPTFEEGDEVIEFDDGSRIRVHSNILSLLSDYLGKSEKEYASRTDCPAIKATCSEKEAFLELLYQAYPTRRPIFASFRRLTAGAVGYKCDNLIYQLSKHLIDYNYRPMTFLQRFQAAIENRLEPAISELAFRAALDGTWNQMIQSGFEPENFCGRQVYTKIVCPAILLARNAKPDATTLKKPENNLKFIELEEGDTTKSAILFRGTIFYINSGILAAHGKEMLCIGQNGEYIARYTAEFHRECARGDLIPGEVLVQLLTYMHPMGEVPHPDMIRACIVFAFDHGWNIVKENLENEFEPPITPDEYMSQLMFGDKFDLKNLLRVNIQRAESSCRELAEVLERHGKLKILKDRTHEGIMDRMCSGWGLNPMVNRLSTRFPTTFHHRTVNLQRGKAVVVGEGRAVDTLNSLASDHAFGEPTELIVVD", "soluble on expression in E. coli": "not soluble"}, {"sequence": "MATKARVMYDFAAEPGNNELTVTEGEIITVTNPNVGGGWLEGKNNKGEQGLVPTDYVEILPNDGKDPFSC", "soluble on expression in E. coli": "soluble"}, {"sequence": "MVEPGRIGGNQTRLAAVLLDVSTPNTLNADFDLMRSVAGITDARNEEIRAMLQAFIGRMSGVPPSVWGGLAAARFQDVVDRWNAESTRLYHVLHAIADTIRHNEAALREAGQIHARHIAAAGGDL", "soluble on expression in E. coli": "soluble"}, {"sequence": "MNIVCIDTCFSSVAITAQGNAGTFTSVFTPAKARHSAILIPAIETAVKQAGFSINETDVLVCPQGPGGFTGLRLAYSTAKAIQLQTNARFFCVSILEALCSKYGDKNQFLSVIDAKRDCFYVQAFENKKPISEAFDIRAEDALKLIDKNKKTIICGFGTEKFNEEAGASIESNNITLIEADKETLSKTLLDCFLTNKNCKKVEDHEGPVYIRKSDAEY", "soluble on expression in E. coli": "not soluble"}, {"sequence": "MGSDKIHHHHHHMIIAGAVPIKGMELIKGPVKLNKDTFEIKNKELPISMGTCALLGAAFKTLEYFGKEDELTFITAGDVGEGDGSLEIYEELHEINDDLTIIHYIKPKISEIIKVDFSKNVIGDAGGMYAGKAAGIGNKFHMFFPDVGELAFLADENSSHPAYVRGFISEIDDQEIPKLIKMAYTQKMPKNMVVKGSKDHIVNEGNIIETVEYPKFEAMECIGGTGDTLTGIASSLIACGFKTEKAGILGCKLNRKLGELVKPRPDTQIYEIIQKIPEALKEFDL", "soluble on expression in E. coli": "not soluble"}, {"sequence": "MGSDKIHHHHHHMNIKEKIAVQLYSVRKEMERDLEGTLRKMHEIGFRYVQLDGMRGNDPSEVRRLLQKYELKVIGMHIKHDRFMNDLDGIIEEAYFFDCKTVFDKYIEEEDQTTAGYTATKAALINAAEKLHPLGFRIGLHNPEYDFNECIHGRRVMDYITDPVDGICIYAEPDTYWIRAAGHDETEFIKRYSGRAPIVHMKDFLSGFELEDMDNNLVEIGQGEVDFRAIIEWGEANGVEYYCIEQDKSKRAMFETLEASYQYLLQL", "soluble on expression in E. coli": "not soluble"}, {"sequence": "MKMSELEKMLKGEHFDGASAEIEALRSQAGRLKLEINQSLDEAERYALQRELFGHLGHKSCVQPPFHCEFGKTIRIGDHTFINMNVVMLDGAPITIGDHVLIGPSTQFYTASHSLDYRRRQAWETICKPIVIEDDVWIGGNVVINQGVTIGARSVVAANSVVNQDVPPDTLVGGTPARILRSLKDPAESMAE", "soluble on expression in E. coli": "not soluble"}, {"sequence": "MGVSPAAPASGIRRPCYLVLSSHDFRTPRRANIHFITDQLALRGTTRFFSLRYSRLSRMKGDMRLPLDDTANTVVSHNGVDCYLWRTTVHPFNTRRSWLRPVEDAMFRWYAAHPPKQLLDWMRESDVIVFESGIAVAFIELAKRVNPAAKLVYRASDGLSTINVASYIEREFDRVAPTLDVIALVSPAMAAEVVSRDNVFHVGHGVDHNLDQLGDPSPYAEGIHAVAVGSMLFDPEFFVVASKAFPQVTFHVIGSGMGRHPGYGDNVIVYGEMKHAQTIGYIKHARFGIAPYASEQVPVYLADSSMKLLQYDFFGLPAVCPNAVVGPYKSRFGYTPGNADSVIAAITQALEAPRVRYRQCLNWSDTTDRVLDPRAYPETRLYPHPPTAAPQLSSEAALSHHHHHHH", "soluble on expression in E. coli": "soluble"}, {"sequence": "GSHMASMTGGQQMGRGSMNTEELQVAAFEIILNSGNARSIVHEAFDAMREKNYILAEQKLQEANDELLKAHQAQTDLLQEYASGTEIKIEIIMVHAQDHLMTTMTLREVAIEMLELYKKS", "soluble on expression in E. coli": "soluble"}, {"sequence": "MGSDKIHHHHHHMLDSSSGNAPDTHAAVDSAVLVSLDLNDSDSAENLEELRQLAASDRLAISAVVLGKRLRPDPATFAGSGKVDEIMGAVEQTGASLVIFNHDLSPAQQRNLEQRLRRRVIDRTSLILDIFAQRAKSHEGKLQVELAQLEHLATRLVRGWTHLERQKGGIGLRGPGETQLETDRRLLGKRVKVLKEKLAKFERQRALQRRARRRAQVMSVSLVGYTNAGKSTLFNRLTRGHTYVADQLFATLDATTRKLFIADRGPLVLSDTVGFIRDLPHTLVAAFRATLEETVQADLLLHVVDTSSSNRSEQIDEVNKVLKEIGADRIPQILVLNKTDLVDLPASSPGYQRDEYGRIVQVRLSAKTGEGLEFINLALSEALGERAALREPDNQSEAQDITSGYH", "soluble on expression in E. coli": "not soluble"}]}]}
